Measured values taken from patent US20110189183A1.

Assays:
[1] = molecular target: Candida albicans (Cat. No. 10231, ATCC) whole cells (Candida albicans); assay: C. albicans FACS, mean FITC fluorescence, Fab; assay background 100
[2] = molecular target: Candida albicans (Cat. No. 10231, ATCC) whole cells (Candida albicans); assay: luminescent C. albicans ELISA, Fab; assay background 950
[3] = molecular target: Candida albicans (Cat. No. 10231, ATCC) whole cells (Candida albicans); assay: luminescent ELISA, Fab on C. albicans cells
[4] = molecular target: Candida albicans (Cat. No. 10231, ATCC) whole cells (Candida albicans); assay: converted from Table 20a with a Fab of about 50 kDa
[5] = molecular target: Candida albicans (Cat. No. 10231, ATCC) whole cells (Candida albicans); assay: FACS, IgG on fixed cells
[6] = molecular target: Candida krusei clinical isolate, whole cells (Candida krusei); assay: FACS, IgG on fixed cells

B1: 1H12 Fab (Fab, V domains shown)
VH: EVQLVESGGGLVKAGGSLILSCGVSNFRISAHTMNWVRRVPGGGLEWVASISTSSTYRDYADAVKGRFTVSRDDLEDFVYLQMHKMRVEDTAIYYCARKGSDRLSDNDPFDAWGPGTVVTVSP
VL: GVVMTQSPSTLSASVGDTITITCRASQSIETWLAWYQQKPGKAPKLLIYKASTLKTGVPSRFSGSGSGTEFTLTISGLQFDDFATYHCQHYMPYRASFGQGTRVEIKR
Binder B1 has an FACS (MF) [1] of 2080 MF, an ELISA (RFU) [2] of 1710 RFU and an Approximate Affinity [3] of 9 µg/mL. The affinity (converted to molar) [4] was 180 nM.

B2: ID-1-RD4-P2G9 Fab (Fab, V domains shown)
VH: EVQLVESGGGLVKAGGSLILSCGVSNFRISAHTMNWVRRVPGGGLEWVASISTSSTYRDYADAVKGRFTVSRDDLEDFVYLQMHKMRVEDTAIYYCARKGSDRLSDNDPFDAWGPGTVVTVSP
VL: GVVMTQSPSTLSASVGDTITITCRASQSIETWLAWYQQKPGKAPKLLIYKASTLKTGVPSRFSGSGSGTEFTLTISGLQFDDFATYHCQHYQPFDATFGQGTRVEIKR
B2 showed an FACS (MF) [1] of 2350 MF and an ELISA (RFU) [2] of 4000 RFU.

B3: ID-2-RD6-P1H11 Fab (Fab, V domains shown)
VH: EVQLVESGGGLVKAGGSLILSCGVSNFRISAHTMNWVRRVPGGGLEWVASISTSSTYRDYADAVKGRFTVSRDDLEDFVYLQMHKMRVEDTAIYYCARKGSDRLSDNDPFDAWGPGTVVTVSP
VL: GVVMTQSPSTLSASVGDTITITCRASQSIETWLAWYQQKPGKAPKLLIYKASTLKTGVPSRFSGSGSGTEFTLTISGLQFDDFATYHCQHYMAYDATFGQGTRVEIKR
Binder B3 has an FACS (MF) [1] of 3760 MF and an ELISA (RFU) [2] of 13000 RFU.

B4: A4F10 IgG (antibody, V domains shown)
VH: EVQLVESGGGLVKAGGSLILSCGVSNFRISAHTMNWVRRVPGGGLEWVASISTSSTYRDYADAVKGRFTVSRDDLEDFVYLQMHKMRVEDTAIYYCARKGSDRLSDNDPFDAWGPGTVVTVSP
VL: GVVMTQSPSTLSASVGDTITITCRASQSIETWLAWYQQKPGKAPKLLIYKASTLKTGVPSRFSGSGSGTEFTLTISGLQFDDFATYHCQHYTDHYGATFGQGTRVEIKR
Work on B4 yielded an affinity [5] of 50 nM and an affinity [6] of 50 nM.

B5: A4F10 Fab (Fab, V domains shown)
VH: EVQLVESGGGLVKAGGSLILSCGVSNFRISAHTMNWVRRVPGGGLEWVASISTSSTYRDYADAVKGRFTVSRDDLEDFVYLQMHKMRVEDTAIYYCARKGSDRLSDNDPFDAWGPGTVVTVSP
VL: GVVMTQSPSTLSASVGDTITITCRASQSIETWLAWYQQKPGKAPKLLIYKASTLKTGVPSRFSGSGSGTEFTLTISGLQFDDFATYHCQHYTDHYGATFGQGTRVEIKR
B5 gave an Approximate Affinity [3] of 1 µg/mL and an affinity (converted to molar) [4] of 20 nM.

B6: ID-2-RD4-P1A5 Fab (Fab, V domains shown)
VH: EVQLVESGGGLVKAGGSLILSCGVSNFRISAHTMNWVRRVPGGGLEWVASISTSSTYRDYADAVKGRFTVSRDDLEDFVYLQMHKMRVEDTAIYYCARKGSDRLSDNDPFDAWGPGTVVTVSP
VL: GVVMTQSPSTLSASVGDTITITCRASQSIETWLAWYQQKPGKAPKLLIYKASTLKTGVPSRFSGSGSGTEFTLTISGLQFDDFATYHCQHYLSYNATFGQGTRVEIKR
In the case of B6, the FACS (MF) [1] is reported as 4000 MF and the ELISA (RFU) [2] is reported as 8140 RFU.

B7: A1E8 IgG (antibody, V domains shown)
VH: EVQLVESGGGLVKAGGSLILSCGVSNFRISAHTMNWVRRVPGGGLEWVASISTSSTYRDYADAVKGRFTVSRDDLEDFVYLQMHKMRVEDTAIYYCARKGSDRLSDNDPFDAWGPGTVVTVSP
VL: GVVMTQSPSTLSASVGDTITITCRASQSIETWLAWYQQKPGKAPKLLIYKASTLKTGVPSRFSGSGSGTEFTLTISGLQFDDFATYHCQHYTDHKGATFGQGTRVEIKR
For B7, the affinity [5] was 50 nM and the affinity [6] was 50 nM.

B8: ID-1-RD5-P2H8 Fab (Fab, V domains shown)
VH: EVQLVESGGGLVKAGGSLILSCGVSNFRISAHTMNWVRRVPGGGLEWVASISTSSTYRDYADAVKGRFTVSRDDLEDFVYLQMHKMRVEDTAIYYCARKGSDRLSDNDPFDAWGPGTVVTVSP
VL: GVVMTQSPSTLSASVGDTITITCRASQSIETWLAWYQQKPGKAPKLLIYKASTLKTGVPSRFSGSGSGTEFTLTISGLQFDDFATYHCQHYREWHATFGQGTRVEIKR
For B8, the FACS (MF) [1] was 4930 MF and the ELISA (RFU) [2] was 3500 RFU.

B9: P2H12 Fab (Fab, V domains shown)
VH: EVQLVESGGGLVKAGGSLILSCGVSNFRISAHTMNWVRRVPGGGLEWVASISTSSTYRDYADAVKGRFTVSRDDLEDFVYLQMHKMRVEDTAIYYCARKGSDRLSDNDPFDAWGPGTVVTVSP
VL: GVVMTQSPSTLSASVGDTITITCRASQSIETWLAWYQQKPGKAPKLLIYKASTLKTGVPSRFSGSGSGTEFTLTISGLQFDDFATYHCQHYTDHHGATFGQGTRVEIKR
In the case of B9, the Approximate Affinity [3] is reported as 2 µg/mL and the affinity (converted to molar) [4] is reported as 40 nM.

B10: ID-3-RD6-P1H10 Fab (Fab, V domains shown)
VH: EVQLVESGGGLVKAGGSLILSCGVSNFRISAHTMNWVRRVPGGGLEWVASISTSSTYRDYADAVKGRFTVSRDDLEDFVYLQMHKMRVEDTAIYYCARKGSDRLSDNDPFDAWGPGTVVTVSP
VL: GVVMTQSPSTLSASVGDTITITCRASQSIETWLAWYQQKPGKAPKLLIYKASTLKTGVPSRFSGSGSGTEFTLTISGLQFDDFATYHCQHYTAHNGATFGQGTRVEIKR
Work on B10 yielded an FACS (MF) [1] of 3380 MF and an ELISA (RFU) [2] of 50000 RFU.

B11: ID-1-RD4-P2C10 Fab (Fab, V domains shown)
VH: EVQLVESGGGLVKAGGSLILSCGVSNFRISAHTMNWVRRVPGGGLEWVASISTSSTYRDYADAVKGRFTVSRDDLEDFVYLQMHKMRVEDTAIYYCARKGSDRLSDNDPFDAWGPGTVVTVSP
VL: GVVMTQSPSTLSASVGDTITITCRASQSIETWLAWYQQKPGKAPKLLIYKASTLKTGVPSRFSGSGSGTEFTLTISGLQFDDFATYHCQHYKPFMATFGQGTRVEIKR
In the case of B11, the FACS (MF) [1] is reported as 10600 MF and the ELISA (RFU) [2] is reported as 7900 RFU.

B12: A1G7 IgG (antibody, V domains shown)
VH: EVQLVESGGGLVKAGGSLILSCGVSNFRISAHTMNWVRRVPGGGLEWVASISTSSTYRDYADAVKGRFTVSRDDLEDFVYLQMHKMRVEDTAIYYCARKGSDRLSDNDPFDAWGPGTVVTVSP
VL: GVVMTQSPSTLSASVGDTITITCRASQSIETWLAWYQQKPGKAPKLLIYKASTLKTGVPSRFSGSGSGTEFTLTISGLQFDDFATYHCQHYTDHRGATFGQGTRVEIKR
B12 gave an affinity [5] of 50 nM and an affinity [6] of 50 nM.

B13: ID-2-RD6-P1H10 Fab (Fab, V domains shown)
VH: EVQLVESGGGLVKAGGSLILSCGVSNFRISAHTMNWVRRVPGGGLEWVASISTSSTYRDYADAVKGRFTVSRDDLEDFVYLQMHKMRVEDTAIYYCARKGSDRLSDNDPFDAWGPGTVVTVSP
VL: GVVMTQSPSTLSASVGDTITITCRASQSIETWLAWYQQKPGKAPKLLIYKASTLKTGVPSRFSGSGSGTEFTLTISGLQFDDFATYHCQHYQPFKATFGQGTRVEIKR
B13 was tested, and the FACS (MF) [1] was 2190 MF and the ELISA (RFU) [2] was 5000 RFU.

B14: ID-3-RD5-P2H7 Fab (Fab, V domains shown)
VH: EVQLVESGGGLVKAGGSLILSCGVSNFRISAHTMNWVRRVPGGGLEWVASISTSSTYRDYADAVKGRFTVSRDDLEDFVYLQMHKMRVEDTAIYYCARKGSDRLSDNDPFDAWGPGTVVTVSP
VL: GVVMTQSPSTLSASVGDTITITCRASQSIETWLAWYQQKPGKAPKLLIYKASTLKTGVPSRFSGSGSGTEFTLTISGLQFDDFATYHCQHYRAHSGATFGQGTRVEIKR
B14 was tested, and the FACS (MF) [1] was 10600 MF and the ELISA (RFU) [2] was 27000 RFU.

B15: ID-3-RD5-P2E9 Fab (Fab, V domains shown)
VH: EVQLVESGGGLVKAGGSLILSCGVSNFRISAHTMNWVRRVPGGGLEWVASISTSSTYRDYADAVKGRFTVSRDDLEDFVYLQMHKMRVEDTAIYYCARKGSDRLSDNDPFDAWGPGTVVTVSP
VL: GVVMTQSPSTLSASVGDTITITCRASQSIETWLAWYQQKPGKAPKLLIYKASTLKTGVPSRFSGSGSGTEFTLTISGLQFDDFATYHCQHYTPHFGATFGQGTRVEIKR
B15 gave an FACS (MF) [1] of 8910 MF and an ELISA (RFU) [2] of 8000 RFU.

B16: A2A12 IgG (antibody, V domains shown)
VH: EVQLVESGGGLVKAGGSLILSCGVSNFRISAHTMNWVRRVPGGGLEWVASISTSSTYRDYADAVKGRFTVSRDDLEDFVYLQMHKMRVEDTAIYYCARKGSDRLSDNDPFDAWGPGTVVTVSP
VL: GVVMTQSPSTLSASVGDTITITCRASQSIETWLAWYQQKPGKAPKLLIYKASTLKTGVPSRFSGSGSGTEFTLTISGLQFDDFATYHCQHYTAHTGATFGQGTRVEIKR
Work on B16 yielded an affinity [5] of 50 nM and an affinity [6] of 50 nM.

B17: A1G7 Fab (Fab, V domains shown)
VH: EVQLVESGGGLVKAGGSLILSCGVSNFRISAHTMNWVRRVPGGGLEWVASISTSSTYRDYADAVKGRFTVSRDDLEDFVYLQMHKMRVEDTAIYYCARKGSDRLSDNDPFDAWGPGTVVTVSP
VL: GVVMTQSPSTLSASVGDTITITCRASQSIETWLAWYQQKPGKAPKLLIYKASTLKTGVPSRFSGSGSGTEFTLTISGLQFDDFATYHCQHYTDHRGATFGQGTRVEIKR
B17 was tested, and the Approximate Affinity [3] was 1.5 µg/mL and the affinity (converted to molar) [4] was 30 nM.

B18: P2H12 IgG (antibody, V domains shown)
VH: EVQLVESGGGLVKAGGSLILSCGVSNFRISAHTMNWVRRVPGGGLEWVASISTSSTYRDYADAVKGRFTVSRDDLEDFVYLQMHKMRVEDTAIYYCARKGSDRLSDNDPFDAWGPGTVVTVSP
VL: GVVMTQSPSTLSASVGDTITITCRASQSIETWLAWYQQKPGKAPKLLIYKASTLKTGVPSRFSGSGSGTEFTLTISGLQFDDFATYHCQHYTDHHGATFGQGTRVEIKR
B18 gave an affinity [5] of 50 nM and an affinity [6] of 50 nM.
